The values below come from PMC8249616, “Structural basis of the activation of c-MET receptor” (Nature Communications, 2021).

The chains are these.
B1: NK1 (human HGF amino acids 31-209) (ligand, UniProt P14210 31-209, looked up)
chain: GQRKRRNTIHEFKKSAKTTLIKIDPALKIKTKKVNTADQCANRCTRNKGLPFTCKAFVFDKARKQCLWFPFNSMSSGVKKEFGHEFDLYENKDYIRNCIIGKGRSYKGTVSITKSGIKCQPWSSMIPHEHSFLPSSYRGKDLQENYCRNPRGEEGGPWCFTSNPEVRYEVCDIPQCSEV
notes: human HGF amino acids 31-209 (N and K1 domains), after an HR3C site; source: E. coli Rosetta-gami 2 (DE3), purified (Ni Sepharose, SEC); not shown: DsBC, N-terminal, cleaved; His6, N-terminal, cleaved

Series [1] concerns the molecule itself. In words: cryo-EM structure; c-MET927-LZ mixed with NK1 and heparin (Tinzaparin sodium) 1:1:4, complex isolated by SEC in 20 mM Hepes pH 7.5, 100 mM NaCl; 2 mM fluorinated Fos-Choline-8 added before freezing.
In series [2] the target is T1, full-length human hepatocyte growth factor (HGF), wild type (human, UniProt P14210 32-728).
T1 construct: signal peptide in the construct; full-length human HGF followed by an HR3C site and a His6 tag; written here as one chain; also called HGF WT; HGF I; source: HEK293F infected with baculovirus (pEZT-BM), 5% FBS in the medium, secreted, purified (cation exchange, SEC)
T1 sequence (P14210 32-728): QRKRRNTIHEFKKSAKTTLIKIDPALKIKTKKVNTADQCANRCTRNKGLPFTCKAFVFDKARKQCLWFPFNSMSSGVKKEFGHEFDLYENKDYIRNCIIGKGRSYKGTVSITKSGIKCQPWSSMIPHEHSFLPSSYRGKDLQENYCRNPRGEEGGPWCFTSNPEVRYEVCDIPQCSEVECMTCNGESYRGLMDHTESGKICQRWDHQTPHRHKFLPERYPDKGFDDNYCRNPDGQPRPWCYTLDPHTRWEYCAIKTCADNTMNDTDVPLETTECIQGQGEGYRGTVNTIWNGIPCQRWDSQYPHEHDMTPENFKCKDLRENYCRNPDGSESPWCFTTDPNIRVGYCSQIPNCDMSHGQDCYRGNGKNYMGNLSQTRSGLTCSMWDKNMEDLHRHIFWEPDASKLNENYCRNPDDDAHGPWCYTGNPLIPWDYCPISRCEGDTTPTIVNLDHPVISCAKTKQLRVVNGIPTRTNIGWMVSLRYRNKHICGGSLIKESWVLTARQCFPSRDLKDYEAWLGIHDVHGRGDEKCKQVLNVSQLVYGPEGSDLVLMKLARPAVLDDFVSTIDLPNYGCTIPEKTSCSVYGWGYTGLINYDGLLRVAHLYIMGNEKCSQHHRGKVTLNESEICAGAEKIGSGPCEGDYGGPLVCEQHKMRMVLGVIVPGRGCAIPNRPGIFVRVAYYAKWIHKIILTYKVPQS
In words: SEC; c-MET927 or c-MET927-LZ alone and mixed with HGF in vitro (Supplementary Fig. 1); whether heparin was added is not told. Conditions: both partners purified. On the technique in general: Size exclusion chromatography separates by hydrodynamic size, large species first.

Series [3] deals with the molecule itself. Described as above.
In series [4] the target is B1. Description: cryo-EM structure; c-MET927-LZ mixed with NK1 and heparin (Tinzaparin sodium) 1:1:4, complex isolated by SEC in 20 mM Hepes pH 7.5, 100 mM NaCl; 2 mM fluorinated Fos-Choline-8 added before freezing. The settings on record: both partners purified.

Regarding B1, the stoichiometry N (usually a count of units in the complex or per binding partner) in series [1] stood at 2.

B2: c-MET927-LZ (c-MET 1-927, GGGGS linker, GCN4 leucine zipper), tags cleaved (receptor)
chain: not shown
notes: signal peptide in the construct; linker; written here as one chain; also called c-MET-LZ; c-MET I; source: HEK293F infected with baculovirus (pEZT-BM), secreted, purified (Ni resin, SEC); not shown: Tsi3, C-terminal, cleaved; His6, C-terminal, cleaved
Take B2: the binding result in series [2] and in series [4] was “binds” throughout. Also, the “stoichiometry N” value in series [3] came out at 2.
